Assay results: patent US20100272709A1 (GENERAL HOSPITAL, published 2010)

What was measured:
[1] = target: wild type dynamin (dynWT; recombinant dynamin 1) (UniProt Q05193); assay: FLIM/FRET in fixed podocytes treated with jasplakinolide; donor GTPase-a488, acceptor Hudy1-a568; variant not given, taken as WT
[2] = target: wild type dynamin (dynWT; recombinant dynamin 1) (UniProt Q05193); assay: FLIM/FRET in fixed podocytes; donor GTPase-alexa488, acceptor hudy1-alexa568; the value differs from the WT row of Table 1
[3] = target: wild type dynamin (dynWT; recombinant dynamin 1) (UniProt Q05193); assay: FLIM/FRET in fixed podocytes treated with LPS; donor GTPase-Alexa488, acceptor Hudy1-Alexa568; self-assembly
[4] = target: wild type dynamin (dynWT; recombinant dynamin 1) (UniProt Q05193); assay: FLIM/FRET in fixed podocytes; donor GTPase-a488, acceptor Hudy1-a568; self-assembly
[5] = target: wild type dynamin (dynWT; recombinant dynamin 1) (UniProt Q05193); assay: FLIM/FRET in fixed podocytes treated with cytochalasin D; donor GTPase-a488, acceptor Hudy1-a568; self-assembly
[6] = target: wild type dynamin (dynWT; recombinant dynamin 1) (UniProt Q05193); assay: FLIM/FRET in fixed podocytes treated with LPS + E64; donor GTPase-Alexa488, acceptor Hudy1-Alexa568; self-assembly
[7] = target: wild type dynamin (dynWT; recombinant dynamin 1) (UniProt Q05193); assay: FLIM/FRET in fixed podocytes expressing the variant; donor GTPase-Alexa488, acceptor Hudy1-Alexa568; shorter lifetime = dynamin higher order self-assembly
[8] = target: wild type dynamin (dynWT; recombinant dynamin 1) (UniProt Q05193); assay: FLIM/FRET in fixed podocytes; donor GTPase-a488, acceptor GTPase-a568 (same antibody on both); the text says no FRET signal was detected with this antibody pair
[9] = target: wild type dynamin (dynWT; recombinant dynamin 1) (UniProt Q05193); assay: FLIM/FRET in fixed podocytes treated with colchicine; donor GTPase-a488, acceptor Hudy1-a568; variant not given, taken as WT
[10] = target: dynK694A (assembly impaired, dominant activating dynamin mutant) (UniProt Q05193); assay: FLIM/FRET in fixed podocytes; donor GTPase-a488, acceptor Hudy1-a568; self-assembly
[11] = target: dynK694A (assembly impaired, dominant activating dynamin mutant) (UniProt Q05193); assay: FLIM/FRET in fixed podocytes expressing the variant; donor GTPase-Alexa488, acceptor Hudy1-Alexa568; self-assembly
[12] = target: dynK694A (assembly impaired, dominant activating dynamin mutant) (UniProt Q05193); assay: FLIM/FRET in fixed podocytes treated with cytochalasin D; donor GTPase-a488, acceptor Hudy1-a568; self-assembly
[13] = target: T1, EYFP-dynamin wild type fusion (UniProt Q05193 1-864); assay: FLIM/FRET in live COS cells; lifetime of the ECFP donor; self-assembly
T1 construct: also called YFP-WT; EYFP-dynWT; not shown: EYFP tag
T1 sequence (looked up): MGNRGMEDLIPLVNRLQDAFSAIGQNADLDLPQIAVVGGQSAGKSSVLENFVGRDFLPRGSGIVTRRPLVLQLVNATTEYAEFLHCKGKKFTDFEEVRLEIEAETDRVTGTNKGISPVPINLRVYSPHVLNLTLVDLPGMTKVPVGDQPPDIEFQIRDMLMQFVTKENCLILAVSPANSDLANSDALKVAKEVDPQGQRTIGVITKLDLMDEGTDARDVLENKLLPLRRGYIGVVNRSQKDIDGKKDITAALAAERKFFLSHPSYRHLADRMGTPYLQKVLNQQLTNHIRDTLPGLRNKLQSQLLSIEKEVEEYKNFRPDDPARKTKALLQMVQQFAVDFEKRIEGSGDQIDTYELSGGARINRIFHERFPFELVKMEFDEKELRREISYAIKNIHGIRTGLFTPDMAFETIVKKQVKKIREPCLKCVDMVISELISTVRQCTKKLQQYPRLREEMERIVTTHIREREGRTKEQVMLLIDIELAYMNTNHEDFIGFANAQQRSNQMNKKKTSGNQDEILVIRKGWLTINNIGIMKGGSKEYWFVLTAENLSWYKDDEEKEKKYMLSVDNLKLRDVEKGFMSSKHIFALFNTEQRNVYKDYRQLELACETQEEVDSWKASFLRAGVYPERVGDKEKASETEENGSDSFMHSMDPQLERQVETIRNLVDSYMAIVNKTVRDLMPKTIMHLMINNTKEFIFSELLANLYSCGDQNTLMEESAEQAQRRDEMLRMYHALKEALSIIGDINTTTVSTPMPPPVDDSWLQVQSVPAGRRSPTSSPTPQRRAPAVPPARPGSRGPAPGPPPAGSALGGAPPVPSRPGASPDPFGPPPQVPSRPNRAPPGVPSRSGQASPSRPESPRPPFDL

EYFP-dynI690K fusion = target: T2, EYFP-dynI690K fusion (UniProt Q05193 1-864); assay: as above
T2 construct: it is read as I690K; also called YFP-1690K; not shown: EYFP tag
T2 sequence (looked up): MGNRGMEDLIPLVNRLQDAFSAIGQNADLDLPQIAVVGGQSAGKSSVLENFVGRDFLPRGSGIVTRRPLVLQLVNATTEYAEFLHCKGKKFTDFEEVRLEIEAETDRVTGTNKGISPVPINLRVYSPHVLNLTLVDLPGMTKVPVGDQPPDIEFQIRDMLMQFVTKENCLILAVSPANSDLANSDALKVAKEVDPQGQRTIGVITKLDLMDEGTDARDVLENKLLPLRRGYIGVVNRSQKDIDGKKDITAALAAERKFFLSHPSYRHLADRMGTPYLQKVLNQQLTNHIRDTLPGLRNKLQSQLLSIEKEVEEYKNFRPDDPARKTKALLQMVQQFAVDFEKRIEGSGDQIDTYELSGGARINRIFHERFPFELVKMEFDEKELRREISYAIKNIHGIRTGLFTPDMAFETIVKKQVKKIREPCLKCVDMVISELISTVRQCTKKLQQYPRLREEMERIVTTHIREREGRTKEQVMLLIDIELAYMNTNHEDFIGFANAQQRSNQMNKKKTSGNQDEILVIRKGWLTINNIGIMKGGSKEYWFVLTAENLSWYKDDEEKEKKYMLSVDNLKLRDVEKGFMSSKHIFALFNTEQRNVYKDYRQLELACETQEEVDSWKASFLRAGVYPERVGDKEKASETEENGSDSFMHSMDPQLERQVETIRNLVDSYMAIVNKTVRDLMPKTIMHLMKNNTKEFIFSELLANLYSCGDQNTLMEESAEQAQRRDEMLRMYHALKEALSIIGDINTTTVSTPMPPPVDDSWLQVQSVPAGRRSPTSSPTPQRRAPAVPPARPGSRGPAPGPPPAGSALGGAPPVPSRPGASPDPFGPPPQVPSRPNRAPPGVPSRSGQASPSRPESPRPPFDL

wild type dynamin (dynWT; recombinant dynamin 1) (from UniProt Q05193 1-864) (enzyme)
Mean Lifetime (γ1) [1]: 2250 ps
lifetime t1 [2]: 2270 ps
Mean Lifetime (γ1) [3]: 2560 ps
Mean Lifetime (γ1) [4]: 2250 ps
Mean Lifetime (γ1) [5]: 2030 ps
Mean Lifetime (γ1) [6]: 2280 ps
Mean Lifetime (γ1) [7]: 2210 ps
Mean Lifetime (γ1) [8]: 2420 ps
Mean Lifetime (γ1) [9]: 2300 ps

B1: dynK694A (assembly impaired, dominant activating dynamin mutant) (enzyme, UniProt Q05193 1-864, looked up)
chain: MGNRGMEDLIPLVNRLQDAFSAIGQNADLDLPQIAVVGGQSAGKSSVLENFVGRDFLPRGSGIVTRRPLVLQLVNATTEYAEFLHCKGKKFTDFEEVRLEIEAETDRVTGTNKGISPVPINLRVYSPHVLNLTLVDLPGMTKVPVGDQPPDIEFQIRDMLMQFVTKENCLILAVSPANSDLANSDALKVAKEVDPQGQRTIGVITKLDLMDEGTDARDVLENKLLPLRRGYIGVVNRSQKDIDGKKDITAALAAERKFFLSHPSYRHLADRMGTPYLQKVLNQQLTNHIRDTLPGLRNKLQSQLLSIEKEVEEYKNFRPDDPARKTKALLQMVQQFAVDFEKRIEGSGDQIDTYELSGGARINRIFHERFPFELVKMEFDEKELRREISYAIKNIHGIRTGLFTPDMAFETIVKKQVKKIREPCLKCVDMVISELISTVRQCTKKLQQYPRLREEMERIVTTHIREREGRTKEQVMLLIDIELAYMNTNHEDFIGFANAQQRSNQMNKKKTSGNQDEILVIRKGWLTINNIGIMKGGSKEYWFVLTAENLSWYKDDEEKEKKYMLSVDNLKLRDVEKGFMSSKHIFALFNTEQRNVYKDYRQLELACETQEEVDSWKASFLRAGVYPERVGDKEKASETEENGSDSFMHSMDPQLERQVETIRNLVDSYMAIVNKTVRDLMPKTIMHLMINNTAEFIFSELLANLYSCGDQNTLMEESAEQAQRRDEMLRMYHALKEALSIIGDINTTTVSTPMPPPVDDSWLQVQSVPAGRRSPTSSPTPQRRAPAVPPARPGSRGPAPGPPPAGSALGGAPPVPSRPGASPDPFGPPPQVPSRPNRAPPGVPSRSGQASPSRPESPRPPFDL
Mean Lifetime (γ1) [10]: 2410 ps
Mean Lifetime (γ1) [11]: 2410 ps
Mean Lifetime (γ1) [12]: 2050 ps

B2: ECFP-dynI690K fusion (other, UniProt Q05193 1-864, looked up)
chain: MGNRGMEDLIPLVNRLQDAFSAIGQNADLDLPQIAVVGGQSAGKSSVLENFVGRDFLPRGSGIVTRRPLVLQLVNATTEYAEFLHCKGKKFTDFEEVRLEIEAETDRVTGTNKGISPVPINLRVYSPHVLNLTLVDLPGMTKVPVGDQPPDIEFQIRDMLMQFVTKENCLILAVSPANSDLANSDALKVAKEVDPQGQRTIGVITKLDLMDEGTDARDVLENKLLPLRRGYIGVVNRSQKDIDGKKDITAALAAERKFFLSHPSYRHLADRMGTPYLQKVLNQQLTNHIRDTLPGLRNKLQSQLLSIEKEVEEYKNFRPDDPARKTKALLQMVQQFAVDFEKRIEGSGDQIDTYELSGGARINRIFHERFPFELVKMEFDEKELRREISYAIKNIHGIRTGLFTPDMAFETIVKKQVKKIREPCLKCVDMVISELISTVRQCTKKLQQYPRLREEMERIVTTHIREREGRTKEQVMLLIDIELAYMNTNHEDFIGFANAQQRSNQMNKKKTSGNQDEILVIRKGWLTINNIGIMKGGSKEYWFVLTAENLSWYKDDEEKEKKYMLSVDNLKLRDVEKGFMSSKHIFALFNTEQRNVYKDYRQLELACETQEEVDSWKASFLRAGVYPERVGDKEKASETEENGSDSFMHSMDPQLERQVETIRNLVDSYMAIVNKTVRDLMPKTIMHLMKNNTKEFIFSELLANLYSCGDQNTLMEESAEQAQRRDEMLRMYHALKEALSIIGDINTTTVSTPMPPPVDDSWLQVQSVPAGRRSPTSSPTPQRRAPAVPPARPGSRGPAPGPPPAGSALGGAPPVPSRPGASPDPFGPPPQVPSRPNRAPPGVPSRSGQASPSRPESPRPPFDL
notes: it is read as I690K; also called CFP-1690K; not shown: ECFP tag
Mean Lifetime (γ1) ps [13]: 1110 ps
Mean Lifetime (γ1) ps (EYFP-dynI690K fusion): 2070 ps
